Data: the supplement of paper PMC9170038

Test system: MS2 coat protein
Assay: apparent KD of MS2 coat protein; designed switch direction (-1 OFF switch, 1 ON switch): -1; higher = weaker reporter binding
Outline: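 The apparent KD reported per design is the median over clusters of curve fits to normalised cluster fluorescence. The RNA switches were transcribed on Illumina chips by stalled E. coli RNA polymerase. SNAP-549-labelled MS2 coat protein was titrated from 0.7 or 1.5 nM, doubling up to 3 µM, in Tris-HCl pH 7.5 buffer containing KCl, MgCl2, BSA, DTT, tRNA and Tween-20, with no input, 200 uM small-molecule ligand, or an oligonucleotide input.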

[1] = input ligand: microRNA oligo, concentration not stated
[2] = Eterna round: R95, input ligand: microRNA oligo, concentration not stated
[3] = Eterna round: R95, input ligand: FMN 200 uM
[4] = Eterna round: R95, input ligand: none

Sequence	apparent KD of MS2 coat protein (input ligand: FMN 200 uM)	apparent KD of MS2 coat protein (input ligand: none)	apparent KD of MS2 coat protein [2]	also measured
AGGUGUAGAGGAUAUCUCUUCUCUCACAUGAGGAUCACCCAUGUCCUGGGCACCAAGGAGAGAGAAGGCUACACCA [Omei Ex5 D10] (Eterna round: R97, puzzle: Exclusion 5)	72.7 nM	271 nM		
GUCAGCUCGUGAGGAUAUACAUGCGUGCUUCGGCACGUAUGAUAGAUCACAUGAGGAUCACCCAUGUAGAAGGCACGAGCUGAC [ENG2/4-A1] (Eterna round: R96, puzzle: Exclusion NG 2)	18.8 nM	12.9 nM		apparent KD of MS2 coat protein [1]: 11.1 nM
GUGAUACAUGAGGAUCACCCAUGUCAGGAUAUGAUACUAUGUACUUCGGUACAUAGUAUCAGAAGGGACAGUGA [Ex1-3: 4] (puzzle: Exclusion 1)			125 nM	
GGAGGAAAGAUAGGAUAUUAGAGGAAGGUGGUGAUAGAGACAUGAGGAUCACCCAUGUAAGGAGGUAAGAAGGGUCGAGGAGGA [AK ExNG2-V2-6] (Eterna round: R96, puzzle: Exclusion NG 2)	231 nM	243 nM		apparent KD of MS2 coat protein [1]: 66.5 nM
UAUUUGCAAGCGAGAUCCCACAUGAGGAUCACCCAUGUGCUCGUCUUAUAAGGUACUGUGACGAGAGUCACGGUACC [Mat - Sensor, turn-off var - Eli Mod - D90] (Eterna round: R97, puzzle: Sensor, turn-off variant 1)	15 nM	15.6 nM		
UCGUGUCUUGAGGAUAUGUUUGAAAAGGCCCACGCAGAAGGCGAGACAUGAGGAUCACCCAUGUCACAGCUCCG [EX6 C.16] (Eterna round: R97, puzzle: Exclusion 6)	56.4 nM	18.6 nM		
AGAAGACAUGAGGAUCACCCAUGUAAGGAUAUUGGAGGUUAGGGAUGCUGGAGUUGGGCAAGAAGGUACAGGUG [JR_Exclu1_Sub092] (puzzle: Exclusion 1)			49.8 nM	apparent KD of MS2 coat protein [3]: 46.9 nM; apparent KD of MS2 coat protein [4]: 81 nM
CCUCCACAUGAGGAUCACCCAUGUCAGGAUAUCGUGUGCGCGUUUUCGGUCUUUCGCGCGAGAAGGGACGACUG (puzzle: Exclusion 1)			24.7 nM	
CUUUUGUGAGGAUAUCAGUUGUAAAUAAAUAAAAUUACUACUGAGAAGGCACAUGAGGAUCACCCAUGUUCCUC [salish99_ex3_r3_073] (puzzle: Exclusion 4)			37.8 nM	
GUUUACAAGCUAAGAUCCUACAUGAGGAUCACCCAUGUGGUCCGGUGACGUGAGUCACCGGACUUAGCUCGUCUUGG [salish99_S_TOV1_R5_090] (Eterna round: R97, puzzle: Sensor, turn-off variant 1)	66 nM	66.7 nM		
AUUUGGUCAGGAUAUUGUUAGUUUAGUUGUUUGUAUUAGUUCGAGAAGGGACAUGAGGAUCACCCAUGUGAUUU [Ex4 #75] (Eterna round: R97, puzzle: Exclusion 4)	87.1 nM	100 nM		
UUUUAACAUGAGGAUCACCCAUGUGAGGAUAUCGAAAUUUAUAUUAAUAUUUAUAAUACGAGAAGGCACAUUUU [JMF 54] (puzzle: Exclusion 1)			84.4 nM	
AGUGCUGGCGCGUCGGUGUUGGUGCAAUAAGCUUGUGAAACAUGAGGAUCACCCAUGUCCUCAUAAGCUCGUCUUAU [salish99_TOv2_r2_085] (puzzle: Sensor v3, turn-off variant 2)			732 nM	apparent KD of MS2 coat protein [3]: 17.1 nM; apparent KD of MS2 coat protein [4]: 15.8 nM
CACCUGAGAGGAUAUACGUUGAUGUUAUGCUAUGGAAAGUUACAUGAGGAUCACCCAUGUAGAAGGCUCAGGUA [Eternabot (L2) Solution 48] (Eterna round: R97, puzzle: Exclusion 2)	75.4 nM	18.8 nM		
CAGUACUGAGGAUAUACAUGAGGAUCACCCAUGUGUCCCAGCUAGGAAACUAGCAAAAGUAGAAGGCAGUACUG [Fiskers Ex 3 828 mod 1] (puzzle: Exclusion 3)			24.4 nM	apparent KD of MS2 coat protein [3]: 420 nM; apparent KD of MS2 coat protein [4]: 24.5 nM
GUGUAGUUAGGAUAUGCUGGAAUCUAGCGAAGCUAGGUUCCACAUGAGGAUCACCCAUGUAGAAGGGACUACAC [Dot plot directed A v10] (puzzle: Exclusion 2)			168 nM	
GUUAGACAUGAGGAUCACCCAUGUGAGGAUAUGAUGCGAAUAAUGAAUGAAGAAAGCAUCAGAAGGCACAUAUG [Mat - Mod of Hyphema D29] (puzzle: Exclusion 1)			296 nM	apparent KD of MS2 coat protein [3]: 375 nM; apparent KD of MS2 coat protein [4]: 221 nM
GACUUCUCUGAGGAUAUUGCAUCAUACGAUAAAUAAGAAGGCAGAACAUGAGGAUCACCCAUGUGGGUUUUAAG [Bingo-Bango-33] (Eterna round: R97, puzzle: Exclusion 6)	137 nM	104 nM		
